What is called EC50 is the concentration at which the effect is half-maximal.

For assay [1], the target named is mouse TIM3 on cells (transfected cells, activated mouse T cells) (mouse) (UniProt Q8VIM0). Put plainly: binding to activated mouse T cells.
Assay [2] shares this target. Put plainly: binding to activated mouse T cells, against TIM3.18 on human TIM3.
Assay [3] addresses human TIM3 on cells (transfected CHO cells, activated human T cells, Th1 cells, TILs) (human) (UniProt Q8TDQ0). Nature of the assay: flow cytometry, human TIM3-transfected CHO cells (Geo-MFI); fit value of a flat negative-control curve, far beyond the tested range; unit from the axis label. On the technique in general: In flow cytometry, cells or beads pass a laser one at a time.

In assay [4] the target is cynomolgus TIM3 on cells (transfected CHO cells, activated cyno T cells, cyno spleen) (cynomolgus). Put plainly: flow cytometry, cyno TIM3-transfected CHO cells (Geo-MFI); fit value of a flat negative-control curve, far beyond the tested range; unit from the axis label.
Chain of cynomolgus TIM3 on cells (transfected CHO cells, activated cyno T cells, cyno spleen) (cynomolgus) (chain, as listed by the source limits assumed): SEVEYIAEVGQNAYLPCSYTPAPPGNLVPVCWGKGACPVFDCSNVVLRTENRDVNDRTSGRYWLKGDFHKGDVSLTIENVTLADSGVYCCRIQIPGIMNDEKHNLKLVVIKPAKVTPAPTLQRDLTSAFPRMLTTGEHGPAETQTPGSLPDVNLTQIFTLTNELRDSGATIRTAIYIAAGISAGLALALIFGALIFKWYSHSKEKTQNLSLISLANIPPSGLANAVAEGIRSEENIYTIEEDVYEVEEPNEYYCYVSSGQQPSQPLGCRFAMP

Chain of mouse TIM3 on cells (transfected cells, activated mouse T cells) (mouse) (Q8VIM0 20-281): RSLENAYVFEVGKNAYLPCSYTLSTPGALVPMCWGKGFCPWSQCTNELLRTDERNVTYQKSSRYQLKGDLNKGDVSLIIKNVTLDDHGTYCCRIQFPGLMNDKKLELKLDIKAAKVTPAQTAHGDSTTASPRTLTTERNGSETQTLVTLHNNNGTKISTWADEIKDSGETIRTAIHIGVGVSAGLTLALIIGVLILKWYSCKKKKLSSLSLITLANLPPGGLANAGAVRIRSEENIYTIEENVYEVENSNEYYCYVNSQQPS

Substance RMT3-23 rat anti-mouse TIM3 antibody gave an EC50 in assay [1] of 1.7 nM. For the same substance, the fold weaker EC50 than TIM3.18 on human TIM3 in assay [2] came to 17 fold.
Consider hIgG1 (antibody), for which the EC50 in assay [3] worked out at 39.7 mg/mL; in assay [4], 75.7 mg/mL.
For hIgG2 (antibody), in that order: 42.3 mg/mL and 44.5 mg/mL.
For hIgG4 (antibody), in that order: 29.3 mg/mL and 54.1 mg/mL.
